Reference: patent US7084111 (UNIVERSITY OF FLORIDA RESEARCH FOUNDATION, dated 2006)
Bridges are numbered along the chain shown (N, C = ends). Where no end group is shown, it is not given here. [ ]: non-standard residue; d: D form. Nle = CCCC[C@H](N)C(=O)O; Dap = NC[C@H](N)C(=O)O

Experiments:
Assay in all cases: cell-based or functional assay
[1] = biological target: T1, mouse melanocortin-1 receptor (mouse, UniProt Q01727 1-315)
[2] = biological target: mouse melanocortin-4 receptor (mouse, UniProt P56450 1-332)
[3] = biological target: T2, mouse melanocortin-3 receptor (mouse, UniProt P33033 1-323)
[4] = biological target: mouse melanocortin-5 receptor (mouse, UniProt P41149 1-325)
[5] = biological target: T1, mouse melanocortin-1 receptor; remark: listed apart in the source
[6] = biological target: T2, mouse melanocortin-3 receptor; remark: listed apart in the source

mouse melanocortin-5 receptor, sequence (P41149 whole entry): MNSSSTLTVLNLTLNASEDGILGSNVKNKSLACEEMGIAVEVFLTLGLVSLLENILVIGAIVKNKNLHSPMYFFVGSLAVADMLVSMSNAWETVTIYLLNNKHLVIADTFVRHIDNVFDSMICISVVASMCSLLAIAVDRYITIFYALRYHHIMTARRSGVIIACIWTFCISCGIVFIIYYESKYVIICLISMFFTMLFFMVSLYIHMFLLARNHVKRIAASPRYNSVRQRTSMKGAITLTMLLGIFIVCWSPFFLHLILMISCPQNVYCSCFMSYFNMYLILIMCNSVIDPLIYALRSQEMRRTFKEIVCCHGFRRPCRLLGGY
T1 sequence (Q01727 whole entry): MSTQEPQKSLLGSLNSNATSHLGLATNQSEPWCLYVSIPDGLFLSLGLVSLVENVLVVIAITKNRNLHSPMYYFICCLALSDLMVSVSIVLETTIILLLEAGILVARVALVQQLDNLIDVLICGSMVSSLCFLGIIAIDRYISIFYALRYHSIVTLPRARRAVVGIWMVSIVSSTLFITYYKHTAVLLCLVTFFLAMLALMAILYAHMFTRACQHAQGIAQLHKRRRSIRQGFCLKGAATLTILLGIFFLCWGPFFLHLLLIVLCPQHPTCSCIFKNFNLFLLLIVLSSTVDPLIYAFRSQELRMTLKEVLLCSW
T2 sequence (P33033 whole entry): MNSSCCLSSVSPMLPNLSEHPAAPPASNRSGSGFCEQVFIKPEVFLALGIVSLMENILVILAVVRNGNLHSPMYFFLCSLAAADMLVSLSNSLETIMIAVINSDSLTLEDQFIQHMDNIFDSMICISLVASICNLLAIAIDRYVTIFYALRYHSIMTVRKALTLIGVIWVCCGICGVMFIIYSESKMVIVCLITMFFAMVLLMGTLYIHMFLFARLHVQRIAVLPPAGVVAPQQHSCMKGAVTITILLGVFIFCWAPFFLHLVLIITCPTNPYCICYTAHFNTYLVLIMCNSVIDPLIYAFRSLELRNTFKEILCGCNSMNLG
mouse melanocortin-4 receptor, sequence (P56450 whole entry): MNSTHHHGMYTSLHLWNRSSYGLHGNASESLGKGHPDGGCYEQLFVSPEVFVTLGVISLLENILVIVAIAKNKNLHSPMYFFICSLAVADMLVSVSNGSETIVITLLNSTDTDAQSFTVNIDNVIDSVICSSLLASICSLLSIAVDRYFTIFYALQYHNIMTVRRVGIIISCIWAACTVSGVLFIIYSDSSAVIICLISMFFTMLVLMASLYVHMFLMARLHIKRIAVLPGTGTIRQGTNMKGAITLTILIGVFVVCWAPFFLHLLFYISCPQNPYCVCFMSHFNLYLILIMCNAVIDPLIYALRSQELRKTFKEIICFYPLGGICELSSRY

Row | Binder | EC50 (agonist) [1] [µM] | EC50 (agonist) [2] [µM] | EC50 (agonist) [3] [µM] | EC50 (agonist) [4] [µM] | EC50 (agonist; Partial agonist) [1] [µM] | other results
1 | Ac-[Nle]DHAAAK-NH2 (lactam 2-7; SMILES CCCC[C@H](NC(C)=O)C(=O)N[C@H]1CC(=O)NCCCC[C@@H](C(N)=O)NC(=O)[C@H](C)NC(=O)[C@H](C)NC(=O)[C@H](C)NC(=O)[C@H](Cc2c[nH]cn2)NC1=O) [SEQ ID NO:19 (Ac-Nle-c[Asp-His-Ala-Ala-Ala-Lys])] | > 100 | > 100 | > 100 | > 100 |  | 
2 | Ac-[Nle]DHRFFK-NH2 (lactam 2-7; SMILES CCCC[C@H](NC(C)=O)C(=O)N[C@H]1CC(=O)NCCCC[C@@H](C(N)=O)NC(=O)[C@H](Cc2ccccc2)NC(=O)[C@H](Cc2ccccc2)NC(=O)[C@H](CCCNC(=N)N)NC(=O)[C@H](Cc2c[nH]cn2)NC1=O) [SEQ ID NO:20 (Ac-Nle-c[Asp-His-Arg-Phe-Phe-Lys])] |  | > 100 | > 100 | > 100 | 38.3 | 
3 | Ac-SYS[Nle]EFFRGKPV-NH2 (SMILES CCCC[C@H](NC(=O)[C@H](CO)NC(=O)[C@H](Cc1ccc(O)cc1)NC(=O)[C@H](CO)NC(C)=O)C(=O)N[C@@H](CCC(=O)O)C(=O)N[C@@H](Cc1ccccc1)C(=O)N[C@@H](Cc1ccccc1)C(=O)N[C@@H](CCCNC(=N)N)C(=O)NCC(=O)N[C@@H](CCCCN)C(=O)N1CCC[C@H]1C(=O)N[C@H](C(N)=O)C(C)C) [SEQ ID NO:13 (Ac-Ser-Tyr-Ser-Nle-Glu-Phe-Phe-Arg-Gly-Lys-Pro-Val)] |  | > 100 | > 100 | > 100 | 19.9 | 
4 | Ac-SYS[Nle]EHFFRGKPV-NH2 (SMILES CCCC[C@H](NC(=O)[C@H](CO)NC(=O)[C@H](Cc1ccc(O)cc1)NC(=O)[C@H](CO)NC(C)=O)C(=O)N[C@@H](CCC(=O)O)C(=O)N[C@@H](Cc1c[nH]cn1)C(=O)N[C@@H](Cc1ccccc1)C(=O)N[C@@H](Cc1ccccc1)C(=O)N[C@@H](CCCNC(=N)N)C(=O)NCC(=O)N[C@@H](CCCCN)C(=O)N1CCC[C@H]1C(=O)N[C@H](C(N)=O)C(C)C) [SEQ ID NO:14 (Ac-Ser-Tyr-Ser-Nle-Glu-His-Phe-Phe-Arg-Gly-Lys-Pro-Val)] |  | > 100 |  |  | 7.22 | EC50 (agonist; Partial agonist) [3]: 20.5 µM; EC50 (agonist; Partial agonist) [4]: 24.4 µM
5 | Ac-SYS[Nle]EHR[dF]FGKPV-NH2 (SMILES CCCC[C@H](NC(=O)[C@H](CO)NC(=O)[C@H](Cc1ccc(O)cc1)NC(=O)[C@H](CO)NC(C)=O)C(=O)N[C@@H](CCC(=O)O)C(=O)N[C@@H](Cc1c[nH]cn1)C(=O)N[C@@H](CCCNC(=N)N)C(=O)N[C@H](Cc1ccccc1)C(=O)N[C@@H](Cc1ccccc1)C(=O)NCC(=O)N[C@@H](CCCCN)C(=O)N1CCC[C@H]1C(=O)N[C@H](C(N)=O)C(C)C) [SEQ ID NO:17 (Ac-Ser-Tyr-Ser-Nle-Glu-His-Arg-DPhe-Phe-Gly-Lys-Pro-Val-NH2)] | 0.00728 |  | 6.21 | 0.45 |  | agonist potency, fold change against SEQ ID NO:15 [5]: 8 fold; fold decrease in agonist potency, fold change against SEQ ID NO:15 [6]: 13 fold
6 | Ac-SYS[Nle]EHRFFGKPV-NH2 [SEQ ID NO:15 (Ac-Ser-Tyr-Ser-Nle-Glu-His-Arg-Phe-Phe-Gly-Lys-Pro-Val)] | 0.0599 | 0.93 | 0.48 | 0.327 |  | 
7 | Ac-SYS[Nle]EHAAAGKPV-NH2 (SMILES CCCC[C@H](NC(=O)[C@H](CO)NC(=O)[C@H](Cc1ccc(O)cc1)NC(=O)[C@H](CO)NC(C)=O)C(=O)N[C@@H](CCC(=O)O)C(=O)N[C@@H](Cc1c[nH]cn1)C(=O)N[C@@H](C)C(=O)N[C@@H](C)C(=O)N[C@@H](C)C(=O)NCC(=O)N[C@@H](CCCCN)C(=O)N1CCC[C@H]1C(=O)N[C@H](C(N)=O)C(C)C) [SEQ ID NO:12 (Ac-Ser-Tyr-Ser-Nle-Glu-His-Ala-Ala-Ala-Gly-Lys-Pro-Val)] | > 100 | > 100 | > 100 | > 100 |  | 
8 | Ac-SYS[Nle]YDRFFNAF[Dap]YKPV-NH2 (lactam 6-13; SMILES CCCC[C@H](NC(=O)[C@H](CO)NC(=O)[C@H](Cc1ccc(O)cc1)NC(=O)[C@H](CO)NC(C)=O)C(=O)N[C@@H](Cc1ccc(O)cc1)C(=O)N[C@H]1CC(=O)NC[C@@H](C(=O)N[C@@H](Cc2ccc(O)cc2)C(=O)N[C@@H](CCCCN)C(=O)N2CCC[C@H]2C(=O)N[C@H](C(N)=O)C(C)C)NC(=O)[C@H](Cc2ccccc2)NC(=O)[C@H](C)NC(=O)[C@H](CC(N)=O)NC(=O)[C@H](Cc2ccccc2)NC(=O)[C@H](Cc2ccccc2)NC(=O)[C@H](CCCNC(=N)N)NC1=O) [SEQ ID NO:11 (Ac-Ser-Tyr-Ser-Nle-Tyr-c[Asp-Arg-Phe-Phe-Asn-Ala-Phe-Dpr]-Tyr-Lys-Pro-Val)] | 1.96 |  |  | > 100 |  | pA2 (antagonist) [2]: 6.2; pA2 (antagonist) [3]: 6.2
9 | YDHRFFNAF[Dap]Y-NH2 (lactam 2-10; N-terminus assumed; SMILES C[C@@H]1NC(=O)[C@H](CC(N)=O)NC(=O)[C@H](Cc2ccccc2)NC(=O)[C@H](Cc2ccccc2)NC(=O)[C@H](CCCNC(=N)N)NC(=O)[C@H](Cc2c[nH]cn2)NC(=O)[C@@H](NC(=O)[C@@H](N)Cc2ccc(O)cc2)CC(=O)NC[C@@H](C(=O)N[C@@H](Cc2ccc(O)cc2)C(N)=O)NC(=O)[C@H](Cc2ccccc2)NC1=O) [SEQ ID NO:8 (Tyr-c[Asp-His-Arg-Phe-Phe-Asn-Ala-Phe-Dpr]-Tyr)] | 13.3 | > 100 |  | 100 |  | fold decrease in agonist potency, fold change against SEQ ID NO:3 [5]: 8 fold
